Data from paper PMC8395503, “Epitope Mapping of Monoclonal Antibodies to Calreticulin Reveals That Charged Amino Acids Are Essential for Antibody Binding” (Antibodies, 2021).

B1: full-length recombinant wild-type calreticulin (natural protein, human, UniProt P27797 18-417, looked up)
chain: EPAVYFKEQFLDGDGWTSRWIESKHKSDFGKFVLSSGKFYGDEEKDKGLQTSQDARFYALSASFEPFSNKGQTLVVQFTVKHEQNIDCGGGYVKLFPNSLDQTDMHGDSEYNIMFGPDICGPGTKKVHVIFNYKGKNVLINKDIRCKDDEFTHLYTLIVRPDNTYEVKIDNSQVESGSLEDDWDFLPPKKIKDPDASKPEDWDERAKIDDPTDSKPEDWDKPEHIPDPDAKKPEDWDEEMDGEWEPPVIQNPEYKGEWKPRQIDNPDYKGTWIHPEIDNPEYSPDPSIYAYDNFGVLGLDLWQVKSGTIFDNFLITNDEAYAEEFGNETWGVTKAAEKQMKDKQDEEQRLKEEEEDKKRKEEEEAEDKEDDEDKDEDEEDEEDKEEDEEEDVPGQAKDEL
notes: calreticulin, human, Prot id P27797; called full-length recombinant wt CRT; Oligomers formed after heat treatment (57 °C 10 min, with or without 42 °C for 3 days); also called CRT; wt CRT; source: recombinant, produced using standard protocols and purified as previously described by Čiplys and colleagues [39]
B2: calreticulin purified from human placenta (natural protein, UniProt P27797 18-417, looked up)
chain: EPAVYFKEQFLDGDGWTSRWIESKHKSDFGKFVLSSGKFYGDEEKDKGLQTSQDARFYALSASFEPFSNKGQTLVVQFTVKHEQNIDCGGGYVKLFPNSLDQTDMHGDSEYNIMFGPDICGPGTKKVHVIFNYKGKNVLINKDIRCKDDEFTHLYTLIVRPDNTYEVKIDNSQVESGSLEDDWDFLPPKKIKDPDASKPEDWDERAKIDDPTDSKPEDWDKPEHIPDPDAKKPEDWDEEMDGEWEPPVIQNPEYKGEWKPRQIDNPDYKGTWIHPEIDNPEYSPDPSIYAYDNFGVLGLDLWQVKSGTIFDNFLITNDEAYAEEFGNETWGVTKAAEKQMKDKQDEEQRLKEEEEDKKRKEEEEAEDKEDDEDKDEDEEDEEDKEEDEEEDVPGQAKDEL
notes: calreticulin, human, Prot id P27797, purified from placenta; Heat-treated (57 °C 10 min) before native PAGE; also called CRT; human CRT purified from human placenta; source: purified from human placenta

Target: the molecule itself
Experiment: native gel or EMSA; native PAGE, 4-20% Tris-glycine gel, native running buffer pH 7.5, Coomassie staining; samples in native sample buffer heated 10 min at 57 °C (recombinant CRT with or without 3 days at 42 °C)

Protein	binding result
B1	binds
B2	binds
